Laboratory results: patent US10300107B2, “Compositions and methods for CaMKII inhibitors and uses thereof” (THE REGENTS OF THE UNIVERSITY OF COLORADO, priority 2007, dated 2019)

Tests used:
[1] = molecular target: T1, CaM dissociation from CaMKII (Homo sapiens, UniProt Q9UQM7); experiment: TA-CaM dissociation from CaMKII; format: binding; settings: 5 μM; 150 nM CaMKII, 30 nM TA-CaM
T1 construct: made in house; host or cells: baculovirus/Sf9 cells (CaMKII)
Description: TA-CaM dissociation was assessed by increased TA-CaM (30 nM) fluorescence after dissociation from CaMKII or its CaM-binding domain (CBD) (150 nM) during a chase with unlabeled CaM (60 μM). Buffer contained 50 mM Hepes pH 7.4, 150 mM KCl, 2 mM MgCl2, 2 mM MgADP, 2 mM CaCl2, and 0.1 mg/ml BSA. Fluorescence was measured in a time scan (1 sec samples) at 365 nm excitation and 415 nm emission wavelength on a spectro-fluorometer (Fluorolog3; Horiba Jobin Yvon) and was corrected for photobleach (FIG. 16).

[2] = tested on: CaMKII T-site mutants W237R and 1205K; experiment: Kinase assay with GFP-CaMKIIα T-site mutants; format: biochemical; settings: substrate syntide2
Text: In another example, FIG. 3. […] FIG. 3A represents a model of CaMKII kinase domain (Rosenberg et al., 2005) with the substrate binding S-site (indicated), the T286-region binding T-site (indicated), and the regulatory region (shown as ribbon). The arrow indicates the proposed orientation of CN21a binding to the T-site, when the regulatory region is displaced after activation. […] Results are normalized to maximal kinase activity without inhibitor. Error bars show s.e.m. […] Bound CaMKII was eluted and detected by Western blot.
CaMKII activity assays. Standard CaMKII assays were done for 1 min at 30° C. previously described, with 20 nM CaMKII (subunit, not holoenzyme concentration), 50 mM PIPES pH 7.2, 0.1 mg/ml BSA, 10 mM MgCl2, 100 μM [γ-^32P] ATP (˜1 Ci/mmol), 1 mM CaCl2, 1-2 μM CaM, and 30-60 μM AC2 peptide (or syntide2). The reactions were spotted onto Whatman P81 phosphocellulose paper rectangles (˜2×2.5 cm). To remove free radioactivity, the paper rectangles were rinsed and washed for 30 min under agitation in 0.5% phosphoric acid or water. […] Radioactivity of the bound peptides was quantified in a Beckman 6000TA scintillation counter by the Cherenkov method. Any changes of the standard protocol were done as indicated. For assays of the GFP-CaMKIIα mutants, kinase amounts were normalized by GFP fluorescence in the extract, and total protein was adjusted with Cos-7 extracts.

B1: CaM-KIIN: natural CaMKII inhibitor protein expressed in brain (protein, UniProt Q7Z7J9 1-78, looked up)
Calcium/calmodulin-dependent …: MSEVLPYGDEKLSPYGDGGDVGQIFSCRLQDTNNFFGAGQNKRPPKLGQIGRSKRVVIEDDRIDDVLKNMTDKAPPGV
- CaM dissociation from CaMKII [1]: slowed down CaM dissociation from CaMKII
- activity of CaMKII T-site mutants W237R and 1205K compared to GFP-CaMKIIα wild type [2]: significantly less affected
